Reference: article PMC9926225

Assays:
[1] = molecular target: NTD truncated λCI (K192A, residues 101 to 236), C-hexahistidine-tagged (λ phage); assay: SEC
[2] = molecular target: RecA (1 to 335), N-heptahistidine-tagged (Escherichia coli); assay: cryo-EM structure
RecA (1 to 335), N-heptahistidine-tagged (Escherichia coli), sequence (A7ZQC8 2-336 limits assumed): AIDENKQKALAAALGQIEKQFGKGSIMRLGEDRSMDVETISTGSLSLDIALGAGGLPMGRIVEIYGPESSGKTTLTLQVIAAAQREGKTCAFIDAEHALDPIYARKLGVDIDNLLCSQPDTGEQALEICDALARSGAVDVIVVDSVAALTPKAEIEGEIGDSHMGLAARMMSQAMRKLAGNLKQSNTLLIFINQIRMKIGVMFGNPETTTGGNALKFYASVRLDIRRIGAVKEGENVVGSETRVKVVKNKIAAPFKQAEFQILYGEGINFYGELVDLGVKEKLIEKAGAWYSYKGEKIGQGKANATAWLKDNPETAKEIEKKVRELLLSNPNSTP

Molecule	stoichiometry N [1]	stoichiometry N (DinI molecules per RecA protomer) [2]
NTD truncated λCI (K192A, residues 101 to 236), C-hexahistidine-tagged (domain or fragment)	2	
DinI (natural protein) MRIEVTIAKTSPLPAGAIDALAGELSRRIQYAFPDNEGHVSVRYAAANNLSVIGATKEDKQRISEILQETWESADDWFVSE		0.5
